Results reported in US20250326813A1 (ELPIS BIOPHARMACEUTICALS, published 2025).

T1: human IL2Rβ Fc fusion protein (human, UniProt P14784 27-239)
T1 construct: also called ILR2β; CD122; not shown: Fc part
T1 sequence (looked up): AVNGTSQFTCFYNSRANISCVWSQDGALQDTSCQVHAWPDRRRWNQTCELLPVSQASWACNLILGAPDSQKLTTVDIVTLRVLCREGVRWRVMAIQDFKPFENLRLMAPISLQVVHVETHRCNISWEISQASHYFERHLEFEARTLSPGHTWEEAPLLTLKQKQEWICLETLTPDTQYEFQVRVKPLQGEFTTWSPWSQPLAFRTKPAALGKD

T2: human IL2Rα Fc fusion protein (human, UniProt P01589 22-213, limits assumed)
T2 construct: also called CD25; not shown: Fc part
T2 sequence (looked up): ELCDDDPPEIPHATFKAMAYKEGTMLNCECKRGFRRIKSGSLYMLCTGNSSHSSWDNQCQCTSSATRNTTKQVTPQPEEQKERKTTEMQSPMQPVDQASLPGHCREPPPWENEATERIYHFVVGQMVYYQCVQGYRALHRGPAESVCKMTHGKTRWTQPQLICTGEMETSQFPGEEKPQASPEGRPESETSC


How the values were obtained:
[1] = target: T1, human IL2Rβ Fc fusion protein; test: ELISA, single concentration, anti-flag detection, E. coli-produced clone
Protocol: (§1) Supernatants containing engineered IL2 mutants were assessed with sandwich ELISA assay to screen for IL2Rα binding. Briefly, 96-well plate was immobilized with human Fc and human IL2Rα, respectively, at a final concentration of 2 μg/mL in 1× PBS in total volume of 50 μL per well. The plate was incubated overnight at 4° C. followed by blocking with 200 μL of superblock per well for 1 hour. 100 μl of supernatant was added to both Fc and IL2Rα immobilized wells and incubated for 1 hour with shaking. The engineered IL2 mutant binding was detected by adding 50 μL of anti-Flag HRP diluted at 1:5000 in 1× PBST. In between each step, the plate was washed three times with 1× PBST in a plate washer. The plate was then developed with 50 μL of TMB substrate for five minutes and stopped by adding 50 μL of 2N sulfuric acid. The plate was read at OD450 nm using a Biotek plate reader and the binding and selectivity was analyzed.
as §1, with “Single clones were next screened for IL2Rβ binding. IL2Rβ binding screening ELISA was developed for the identification of individual” for “Supernatants containing”, “mutant.” for “mutants were assessed with sandwich ELISA assay to screen for IL2Rα binding.”, “IL2Rβ,” for “IL2Rα,”, “IL2Rβ” for “IL2Rα”
(§2) To further triage, the engineered IL2 clones with unique sequences were produced in E. coli. In short, the glycerol stock of each engineered agonist clone was inoculated into TB medium for overnight growth. The next day, cells from the overnight culture were inoculated into TB medium and grown to a cell density of OD₆₀₀ between 0.6-0.8. IPTG was added to a final concentration of 1 mM to induce the expression during culture at 30° C. overnight. The supernatant was collected by centrifugation.

[2] = target: T2, human IL2Rα Fc fusion protein; test: as above
Protocol: as §1
as §1, with “Single clones were next screened for IL2Rβ binding. IL2Rβ binding screening ELISA was developed for the identification of individual” for “Supernatants containing”, “mutant.” for “mutants were assessed with sandwich ELISA assay to screen for IL2Rα binding.”, “IL2Rβ,” for “IL2Rα,”, “IL2Rβ” for “IL2Rα”
as §2

[3] = target: T2, human IL2Rα Fc fusion protein; test: SPR (Biacore T200), receptor captured on Protein A chip, IL2 at 100 nM and 20 nM
Protocol: The assay was run with Biacore T200 control software version 2.0. For each cycle, 1 μg/mL of human IL2Rβ or IL2Rα was captured for 60 seconds at flow rate of 10 μL/min on flow cell 2 in 1× HBSP buffer on Protein A sensor chip. 100 nM and 20 nM of HIS tag purified engineered IL2 mutant was injected onto both reference flow cell 1 and IL2Rβ or IL2Rα captured flow cell 2 for 150 seconds at flow rate of 30 μL/min followed by washing for 300 seconds. The flow cells were then regenerated with Glycine pH 2 for 60 seconds at a flow rate of 30 μL/mins. The kinetics data was analyzed with Biacore T200 evaluation software 3000. The specific binding response unit was derived from subtraction of binding to reference flow cell 1 from target flow cell 2.

[4] = target: T1, human IL2Rβ Fc fusion protein; test: ELISA on coated receptor-Fc, anti-His detection, single point 10 µM
Protocol: (§3) Back-mutations were characterized for their binding activities to IL2Rβ and IL2Rα receptors by ELISA. Briefly, 384 well plate was immobilized with human IL2Rα and IL2Rβ Fc fusion proteins at a final concentration of 2 μg/mL in 1× PBS in total volume of 25 μL per well. The plate was incubated overnight at 4° C. and blocked with 80 μL of superblock per well for 1 hour. […] The IL2 mutant binding was detected by adding 25 μL of anti-His HRP diluted at 1:5000 in 1× PBST. In between each step, the plate was washed three times with 1× PBST using a plate washer. […] The plate was then developed with 25 μL of TMB substrate for five minutes and stopped by adding 25 μl of 2N sulfuric acid. The plate was read at OD450 nm Biotek plate reader (Table 6) and the data was analyzed with Prism 8.1 software to generate bar graph (FIG. 5).

[5] = target: T2, human IL2Rα Fc fusion protein; test: as above
Protocol: as §3

OD450 nm [1] | OD450 nm [2] | Kd [3] | Average OD (450 nm) [4] | Average OD (450 nm) [5] | Binder
– | – | – | 0.083 OD450 | 0.083 OD450 | EP662, EP575 back-mutation clone (ligand, Mammalian-produced, His-tagged) APASSSTKKTQLQLEHLLLDLQMILNGINNYKNPLLTDMLTRKFYMPKKATELKHLQCLEEELKPLEEVLNLAQSKNFHLRPKGLISDINNIVLALKGSETTFMCEYADETATIVEFLNRWITFSQSIISTLT
– | – | – | 0.87 OD450 | 0.12 OD450 | EP658, EP575 back-mutation clone (ligand, Mammalian-produced, His-tagged) APASSSTKKTQLQLEHLLLDLQMILNGINNYKNPLLTDMLTRKFYMPKKATELKHLQCLEEELKPLEEVLNLAQSKNFHLRPRGLISDISNIVLALKGSETTFMCEYADETATIVEFLNRWITFSQSIISTLT
– | – | – | 0.501 OD450 | 0.11 OD450 | EP661, EP575 back-mutation clone (ligand, Mammalian-produced, His-tagged) APASSSTKKTQLQLEHLLLDLQMILNGINNYKNPLLTDMLTRKFYMPKKATELKHLQCLEEELKPLEEVLNLAQSKNFHLRPKGLISNISNIVLALKGSETTFMCEYADETATIVEFLNRWITFSQSIISTLT
– | – | – | 0.096 OD450 | 0.077 OD450 | EP665, EP575 back-mutation clone (ligand, Mammalian-produced, His-tagged) APASSSTKKTQLQLEHLLLDLQMILNGINNYKNPLLTDMLTRKFYMPKKATELKHLQCLEEELKPLEEVLNLAQSKNFHLRNRGLISDINNIVLALKGSETTFMCEYADETATIVEFLNRWITFSQSIISTLT
0.583 OD450 | 0.614 OD450 | 4260 nM | – | – | EP585 (clone 2021EP16-C03), E. coli-produced (ligand) APASSSTKKTQLQLEHLLLDLQMILNGINNYKNPKLTRMLTFKFYMPKKATELKHLQCLEEELKPLEEVLNLAQSKNFHLSPPDLIANMAVYFVELKGSETTFMCEYADETATIVEFLNRWITFSQSIISTLT

The next lines start with the binder.

Binder | OD450 nm [1] | OD450 nm [2] | Kd [3] | Average OD (450 nm) [4] | Average OD (450 nm) [5]
EP573 (clone 2021EP16-E02), E. coli-produced (ligand) APASSSTKKTQLQLEHLLLDLQMILNGINNYKNPKLTRMLTFKFYMPKKATELKHLQCLEEELKPLEEVLNLAQSKNFHLNRTDLVGDVNATIKALKGSETTFMCEYADETATIVEFLNRWITFSQSIISTLT | 0.07 OD450 | 1.58 OD450 | 55.1 nM | – | –
EP575 (clone 2021EP16-D09), E. coli-produced (ligand) APASSSTKKTQLQLEHLLLDLQMILNGINNYKNPKLTRMLTFKFYMPKKATELKHLQCLEEELKPLEEVLNLAQSKNFHLRNKGILGDISNIVLALKGSETTFMCEYADETATIVEFLNRWITFSQSIISTLT | 0.057 OD450 | 1.25 OD450 | 98.2 nM | – | –
EP581 (clone 2021EP16-C10), E. coli-produced (ligand) APASSSTKKTQLQLEHLLLDLQMILNGINNYKNPKLTRMLTFKFYMPKKATELKHLQCLEEELKPLEEVLNLAQSKNFHLRSREVVSRIDAIILELKGSETTFMCEYADETATIVEFLNRWITFSQSIISTLT | 0.127 OD450 | 0.88 OD450 | 106 nM | – | –
EP576 (clone 2021EP21-C10), E. coli-produced (ligand) APASSSTKKTQLQLEHLLLDLQMILNGINNYKNPKLTRMLTFKFYMPKKATELKHLQCLEEELKPLEEVLNLAQSKNFHLLPRNKISKTKVMVHELKGSETTFMCEYADETATIVEFLNRWITFSQSIISTLT | 1.12 OD450 | 0.361 OD450 | 143 nM | – | –
EP577 (clone 2021EP16-E05), E. coli-produced (ligand) APASSSTKKTQLQLEHLLLDLQMILNGINNYKNPKLTRMLTFKFYMPKKATELKHLQCLEEELKPLEEVLNLAQSKNFHLKAIAFISDLKVRVLDLKGSETTFMCEYADETATIVEFLNRWITFSQSIISTLT | 0.149 OD450 | 0.771 OD450 | 956 nM | – | –
EP582 (clone 2021EP16-G10), E. coli-produced (ligand) APASSSTKKTQLQLEHLLLDLQMILNGINNYKNPKLTRMLTFKFYMPKKATELKHLQCLEEELKPLEEVLNLAQSKNFHLTHRDVISDVNVLALELKGSETTFMCEYADETATIVEFLNRWITFSQSIISTLT | 0.337 OD450 | 1.08 OD450 | 151 nM | – | –
